Columns and labels:
[1] = target: T1, GST-SND1 (NST3) (Arabidopsis thaliana) (UniProt Q9LPI7); assay: EMSA; settings: 10 mM Tris pH 7.5, 50 mM KCl, 1 mM DTT, 2.5% glycerol, 5 mM MgCl2, 0.1% IGEPAL CA-630, 0.05 ug/ul calf thymus DNA, 150 ng protein, 30 min room temperature
T1 sequence: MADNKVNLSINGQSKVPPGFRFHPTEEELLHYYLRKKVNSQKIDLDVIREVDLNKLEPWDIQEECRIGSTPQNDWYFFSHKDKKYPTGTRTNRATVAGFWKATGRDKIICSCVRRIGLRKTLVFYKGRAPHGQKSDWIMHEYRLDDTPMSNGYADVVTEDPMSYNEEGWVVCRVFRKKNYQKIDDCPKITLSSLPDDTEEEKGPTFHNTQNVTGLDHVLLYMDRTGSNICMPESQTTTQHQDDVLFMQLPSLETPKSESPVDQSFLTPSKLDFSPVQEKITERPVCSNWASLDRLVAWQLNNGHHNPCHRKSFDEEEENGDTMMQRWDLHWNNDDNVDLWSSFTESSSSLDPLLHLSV

[2] = target: T2, GST-NST2 (Arabidopsis thaliana) (UniProt Q9M274); assay: EMSA; settings: 10 mM Tris pH 7.5, 50 mM KCl, 1 mM DTT, 2.5% glycerol, 5 mM MgCl2, 0.1% IGEPAL CA-630, 0.05 ug/ul calf thymus DNA, 150 ng protein, 30 min room temperature
T2 sequence: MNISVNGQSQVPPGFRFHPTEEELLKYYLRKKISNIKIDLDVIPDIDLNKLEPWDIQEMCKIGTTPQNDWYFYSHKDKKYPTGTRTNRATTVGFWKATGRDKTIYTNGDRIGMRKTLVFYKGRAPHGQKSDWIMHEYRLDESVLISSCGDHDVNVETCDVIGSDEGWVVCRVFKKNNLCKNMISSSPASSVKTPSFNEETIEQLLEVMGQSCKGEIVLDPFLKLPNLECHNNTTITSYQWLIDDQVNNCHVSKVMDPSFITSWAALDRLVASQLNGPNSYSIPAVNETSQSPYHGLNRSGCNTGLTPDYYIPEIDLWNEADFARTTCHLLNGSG

Question: What does the source list for “CCAGATTTGGTAAAGTTTATAAGATACAAAATATTAAGTAAGACTAAAGTAGAAATACATAATAACTTGAAAGCTACTCTAAGTTATACAAATTCTAAAGAACTCAAAAGAATAAC (double strand) [CESA4Bay-C]”?
Answer: binding [1]: binds; binding [2]: binds

Question: How did the binding [1] turn out when “GAAAGCTACTCTAAGTTATACAAATTCTAAAGAACTCAAAAGAATAACAAACAGTAGAAGTTGGAAGCTCAAGCAATTAAATTA (double strand) [CESA4Bay-D]” was run?
Answer: no binding

Question: And the binding [2]?
Answer: no binding

Question: “GAAAGCTACTCTAAGTTATACAAATTCTAAAGAACTCAAAAGAATAACAAACAGTAGAAGTTGGAAGCTCAAGCAATTAAATTA (double strand) [CESA4Sha-D]” was tested. Which binding [1] did it give?
Answer: no binding

Question: And the binding [2]?
Answer: no binding

Question: With “GTTGGAAGCTCAAGCAATTAAATTATATAAAAACACTAACTACACTGAGCTGTCTCCTTCTTCCACCAAATCTTGTTGCTGTCTCTTGAAGCTTTCTTATGACAC (double strand) [CESA4Bay-E]” as the sequence, how does the binding [1] read?
Answer: binds

Question: What about the binding [2] of the same sequence?
Answer: binds

Question: “GTTGGAAGCTCAAGCAATTAAATTATATAAAAACACTAACTACACTGAGCTGTCTCCTTCTTCCACCAAATCTTGTTGCTGTCTCTTGAAGCTTTCTTATGACAC (double strand) [CESA4Sha-E]” was tested. Which binding [1] did it give?
Answer: binds

Question: And the binding [2]?
Answer: binds
